Consider one molecule from US8846003 (PURDUE RESEARCH FOUNDATION, dated 2014).

*: point of attachment. Dansyl = CN(C)c1cccc2c(S(=O)(=O)*)cccc12

Test [1] deals with T1, collagen.
T1 construct: also called collagen surface; collagen-treated well
Put plainly: microplate fluorescence binding assay on collagen-coated wells, binding curve fitted to the data of FIGURE 4. The text has this: Figure 4: FIG. 4. Binding of dansyl-modified peptide SILY to collagen measured in 96-well high-binding plate (black with a clear bottom (Costar)). PBS, buffer only; BSA, BSA-treated well; Collagen, collagen-treated well. Fluorescence readings were taken on an M5 Spectramax Spectrophotometer (Molecular Devices) at excitation/emission wavelengths of 335 nm/490 nm, respectively. Figure 5: FIG. 5. Collagen-dansyl-modified peptide SILY binding curve derived from fluorescence data described in FIG. 4. Figure 6: FIG. 6. A schematic description of the reagent, 3-(2-pyridyldithio)propionyl hydrazide (PDPH), and the chemistry of the two-step conjugation of a cysteine-containing peptide with an oxidized glycosylaminoglycoside showing the release of 2-pyridylthiol in the final step.
Binding assays were done in a 96-well high-binding plate, black with a clear bottom (Costar). Collagen was compared to untreated wells and BSA coated wells. Collagen and BSA were immobilized at 37° C. for 1 hr by incubating 90 µL/well at concentrations of 2 mg/mL in 10 mM HCl and 1×PBS, respectively. Each well was washed 3× with 1×PBS after incubating. Z-SILY was dissolved in 1×PBS at concentrations from 100 µM to 10 nM in 10-fold dilutions. […] Fluorescence readings were taken on an M5 Spectramax Spectrophotometer (Molecular Devices) at excitation/emission wavelengths of 335 nm/490 nm respectively.

In test [2] the target is T1, collagen. Put plainly: fluorescence plate binding assay; collagen coated on 96-well high-binding plate, Z-SILY 100 µM to 10 nM, ex/em 335/490 nm; from equilibrium binding. As for the experimental part:
Binding assays were done in a 96-well high-binding plate, black with a clear bottom (Costar). Collagen was compared to untreated wells and BSA coated wells. Collagen and BSA were immobilized at 37° C. for 1 hr by incubating 90 µL/well at concentrations of 2 mg/mL in 10 mM HCl and 1×PBS, respectively. Each well was washed 3× with 1×PBS after incubating. Z-SILY was dissolved in 1×PBS at concentrations from 100 µM to 10 nM in 10-fold dilutions. Wells were incubated for 30 min at 37° C. and rinsed 3× with PBS and then filled with 90 µL of 1×PBS. Fluorescence readings were taken on an M5 Spectramax Spectrophotometer (Molecular Devices) at excitation/emission wavelengths of 335 nm/490 nm respectively.

B1: Dansyl-GRRANAALKAGELYKSILYGC (peptide)
peptide: Dansyl-GRRANAALKAGELYKSILYGC-NH2
notes: Fluorescently labelled version of SILY; also called Z-SILY; ZSILY
On to B1, for which the EC50 (read off the curve) (commonly the concentration giving half of the maximal effect) in test [1] is around 900 nM. For the same molecule, in test [2], binding was characterised by a dissociation constant (Kd) of 860 nM.
